pKd: −log10 of the molar value.
What was measured:
Experiment in all cases: BLI
Anti-mTfRC 8D3 (mouse) = molecular target: Anti-mTfRC 8D3 (mouse)
[1] = molecular target: TBTI_13C3x8D3 HC_N31A_mIgG1 (mouse)
[2] = molecular target: TBTI_13C3x8D3 HC_S101A_mIgG1 (mouse)
[3] = molecular target: TBTI_13C3x8D3 HC_T100A_mIgG1 (mouse)
[4] = molecular target: TBTI_13C3x8D3 HC_Y52A_mIgG1 (mouse)
[5] = molecular target: TBTI_13C3x8D3 HC_Y53A_mIgG1 (mouse)
[6] = molecular target: TBTI_13C3x8D3 LC_G68I_mIgG1 (mouse)
[7] = molecular target: TBTI_13C3x8D3 LC_N31A_mIgG1 (mouse)
[8] = molecular target: TBTI_13C3x8D3 LC_N93A_mIgG1 (mouse)
[9] = molecular target: TBTI_13C3x8D3 LC_Y49A_mIgG1 (mouse)
[10] = molecular target: TBTI_13C3x8D3 LC_Y92A_mIgG1 (mouse)
[11] = molecular target: TBTI_13C3x8D3_HC_N31A/LC_Y92A_mIgG1 (mouse)
[12] = molecular target: TBTI_13C3x8D3_HC_S101A/LC_Y92A_mIgG1 (mouse)
[13] = molecular target: TBTI_13C3x8D3_HC_Y52A-S101A/LC_Y49A-Y92A-mIgG1 (mouse)
[14] = molecular target: TBTI_13C3x8D3_HC_Y52A/LC_Y49A_mIgG1 (mouse)
[15] = molecular target: TBTI_13C3x8D3_HC_Y52A/LC_Y92A_mIgG1 (mouse)
[16] = molecular target: TBTI_13C3x8D3_mIgG1 (mouse)
[17] = molecular target: TBTI_8D3x13C3_mIgG1 (mouse)

pKd (Anti-mTfRC 8D3 (mouse)): 9.27
koff (Anti-mTfRC 8D3 (mouse)): 3.9e-05 s⁻¹
kon (Anti-mTfRC 8D3 (mouse)): 71300 M⁻¹ s⁻¹
pKd [1]: 8.18
koff [1]: 0.000159 s⁻¹
pKd [2]: 8.05
koff [2]: 0.000258 s⁻¹
kon [2]: 28800 M⁻¹ s⁻¹
pKd [3]: 8.42
koff [3]: 0.000233 s⁻¹
kon [3]: 60800 M⁻¹ s⁻¹
pKd [4]: 7.75
koff [4]: 0.000521 s⁻¹
kon [4]: 29200 M⁻¹ s⁻¹
pKd [5]: 8.37
koff [5]: 0.000124 s⁻¹
kon [5]: 29200 M⁻¹ s⁻¹
pKd [6]: 8.42
koff [6]: 0.000105 s⁻¹
kon [6]: 27200 M⁻¹ s⁻¹
pKd [7]: 8.66
koff [7]: 5.4e-05 s⁻¹
pKd [8]: 8.38
koff [8]: 0.000112 s⁻¹
kon [8]: 27100 M⁻¹ s⁻¹
pKd [9]: 8.35
koff [9]: 9.9e-05 s⁻¹
kon [9]: 22100 M⁻¹ s⁻¹
pKd [10]: 8.16
koff [10]: 0.000149 s⁻¹
kon [10]: 21700 M⁻¹ s⁻¹
koff [11]: 0.000553 s⁻¹
kon [11]: 62100 M⁻¹ s⁻¹
pKd [12]: 8.16
koff [12]: 0.000357 s⁻¹
kon [12]: 51400 M⁻¹ s⁻¹
pKd [13]: 7.71
koff [13]: 0.00111 s⁻¹
kon [13]: 32600 M⁻¹ s⁻¹
koff [14]: 0.000689 s⁻¹
kon [14]: 793000 M⁻¹ s⁻¹
pKd [15]: 7.53
koff [15]: 0.000734 s⁻¹
kon [15]: 25200 M⁻¹ s⁻¹
pKd [16]: 8.55
koff [16]: 9.9e-05 s⁻¹
kon [16]: 35300 M⁻¹ s⁻¹
pKd [17]: 9.40
koff [17]: 2.9e-05 s⁻¹
kon [17]: 74400 M⁻¹ s⁻¹
Substance: mouse transferrin receptor protein (mTfR), Sino Biological 50741-M07H (from UniProt Q62351 89-763)
